Assay results as given in US20240092922A1 (EUCURE BEIJING BIOPHARMA, published 2024).
Residue numbers refer to the chain shown, from its start.

B1: 16-1C4-mHvKv-IgG4 (antibody, V domains shown)
VH: QGQMQQSGAELVKPGASVKLSCKTSGFTFSSSYINWLKQKPGQSLEWIAWIFAGTGGTYYNQKFTGKAQLTVDTSSGTAYMQFSSLTTEDSAIYYCARHSPRATLFDFWGQGTTLTVSS
VL: QIVLSQSPAILSASPGEKVTMTCRASSSVNHMHWYQQRTGFSPKAWIYATSNLASGVPARFSGSGSGTSYSLTISRVEAEDAATYYCQQWSSNPYTFGGGTKLEIK
B2: 29-6A5-mHvKv-IgG2 (antibody, V domains shown)
VH: QVQLQQPGAELVRPGASVKLSCKASGYTFSSYWINWVKQRPGQGLEWIGNIYPSDSYTNYNQKFKDKATLTVDKSSSTAYMQLSSPTSDDSAVYYCTRTWEFYYDSVFDYWGQGTTLTVSS
VL: DIKMTQSPSSMYASLGERVTITCKASQDINSYLSWFQQKPGKSPKTLIYRANRLVDGVPSRFSGSGSGQDYSLTISSLEYEDMGIYYCLQYDELPPTFGGGTKLEIK
B3: 30-5F9-mHvKv-IgG4 (antibody, V domains shown)
VH: QVQLKESGPGLVAPSQSLSITCTVSGFSLTTYDISWVRQPPGKGLEWLGVIWTGGGTNYNSSFMSRLSISKDNSKNQVFLKMNSLQVDDTAIYYCERVDYWGQGTTLTVSS
VL: DVVMTQTPLSLPVSLGDQASISCRSSQSLVHSNGNTYLHWYLQKPGQSPKLLIYKVSNRFSGVPDRFSGSGSGTAFTFKISRVEAEDLGVYFCSQNTHVPWTFGGGTKLEIK
B4: 45-2B3-mHvKv-IgG2 (antibody, V domains shown)
VH: QVQLQQSGPELVKPGASVKISCKTSGYAFSTSWMNWVKQRPGQGLEWIGRIYPGDGDTDYNGRFKGKATLTADKSSSTAYLQLSSLTSVDSAVYFCARLDGYYEVFYFDYWGQGTTLTVSS
VL: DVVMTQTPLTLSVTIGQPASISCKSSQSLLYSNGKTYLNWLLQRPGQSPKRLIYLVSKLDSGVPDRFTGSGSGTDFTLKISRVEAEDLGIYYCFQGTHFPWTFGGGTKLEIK
B5: 45-4B9-mHvKv-IgG2 (antibody, V domains shown)
VH: EVQLQQSGPELVKPGASVKMSCKASGYTFTTYVMYWVKQRPGQGLEWIGYINPYNDDIRYNEKFKGKATLTSDRSSSTAYMELSSLTSEDSAVYLCARQGGDYWGQGTILTVSS
VL: DVQITQSPSYLAASPGETITVNCRASKNINKYLAWYQEKPGKTNKLLIYSGSTLQSGIPSRFSGSGSGTDFTLTISSLEPEDFAVYHCQQYNEYPLTFGAGTKLEMK
B6: 45-7E9-mHvKv-IgG2 (antibody, V domains shown)
VH: QVQLKQSGPGLVQPSQSLSITCTVSGFSLTTYGVHWVRQPPGKGLEWLGVIWSDGNTDYNDAFISRLSITKDNSTSQVFFKMNGLQADDTAIYYCARNSITSVSFDCWGQGTTLTVSS
VL: DIVMTQSQKFMSTSVGDRVSVTCKASQNVGTTVAWYQQRPGQSPKALICSASYRYSGVPDRFTGSGSGTDFTLTISNVQSEDLAEYFCQQYNSYPLTFGSGTKLEIK
B7: 45-7G9-mHvKv-IgG2 (antibody, V domains shown)
VH: QVQLQQPGSALVRPGASVKLSCKASGYTFSNYWIHWVKQRHGQGLEWIGNIYPASDYTNYDEKFKNKGTLTVDTSSSTAYMHLSSLTSEDSAVYYCSRGYFGSLDYWGQGTSVTVSA
VL: DILLTQSPAILSVNPGERVSFSCRASQPIGTGIHWYQQRTNGSPRLLIKSASESISGIPSRFSGSGSGTDFTLTINNVESDDVGDYYCQQSYSWPTTFGGGTKLKIN
B8: 45-8E11-mHvKv-IgG2 (antibody, V domains shown)
VH: EVQLQQSGTVLARPGASVKMSCKASGYSFTSNWMHWVKQRPGQGLEWIGVIYPGNSDTSYNQKFKGKAKLTAVTSASTAYMELSSLTNEDSAVYYCTRGITTAPEYWGQGTTLTVSS
VL: NIVMTQSPKSMSMSVGERVTLSCKASENVGIYVSWYQQKPEQSPKLLIYGASNRYTGVPDRFTGSGSATDFTLTISSVQPEDLADYHCGHTYNYPFTFGSGTKLEIK
B9: 45-8F1-mHvKv-IgG2 (antibody, V domains shown)
VH: B8 VH with N32Y, E82D, E105D
VL: B8 VL with Y32H, N53S, R54G, T56N, H90Q, N93S
B10: 45-8E2-mHvKv-IgG2 (antibody, V domains shown)
VH: EVKLLESGGGLVQPGGSLKLSCAASGFDFSRYWMSWVRQAPGKGLEWIGEIHPDSSAINYTPSLKDKFIISRDNAKNTLYLQMSKVRSEDTALYYCARSYYGRVFDYWGQGTTLTVSS
VL: DIVMTQSPATLSVTPGDRVSLSCRASQSISDYLHWYQQKSHESPRLLIKYASQSISGIPPRFSGSGSGSDFTLSINSVEPEDVGMYYCQDGHSFPPTFGAGTKLELK
B11: 54-8B11-mHvKv-IgG2 (antibody, V domains shown)
VH: QIQLVQSGPELKKPGETVKISCKASKFTFTNYGMNWVKQAPGKALKWMGWINTYTGEPTYADDFKGRFDFSLETSATTAYLQINNLKNEDTATYFCARREYYPWVFVYWGQGTLVTVSA
VL: ENVLTQSPAIMSASPGEKVTMTCSASSSVSYMHWYQQKSSTSPKLWIYDTSKLASGVPGRFSGSGSGNSYSLTISSMEAEDVATYYCFQGSGYPLTFGGGTKLEIK
B12: 55-8F6-mHvKv-IgG2 (antibody, V domains shown)
VH: QVQLQQPGAELVRPGASVKLSCKASGYIFTSYWINWVKQRPGQGLEWIGNIYPSDSYTNYNQKFKDKATLTVDKSSSTAYMQLSSPTSEDSAVYYCTRFHYGSSPFDNWGQGTTLTVSS
VL: DIQMTQSTSSLSASLGDRVTISCRASQDISHYLNWYQQKPDGTVKLLIYYTSRLHSGVPSRFSGSGSGTDYSLTISNLEQEDFATYFCQQGHTLPRTFGGGTKLEIK
B13: 56-2A6-mHvKv-IgG2 (antibody, V domains shown)
VH: QIQLVQSGPELKKPGETVKISCKASGYTFTNYGMNWVKQAPGKGFKWMGWINTYTGEPTYADDFKGRFAFSLEISASTAYLQINNLKNEDTATYFCARRDYLGAMDYWGQGTSVTVSS
VL: ENVLTQSPAIMSASPGEKVTMTCRASSSVSSSYLHWYQQKSGASPKLWIYSTSNLASGVPARFSGSGSGTSYSLTISSVEAEDAATYYCQQYSAYLYTFGGGTKLEIK
B14: 59-5E4-mHvKv-IgG2 (antibody, V domains shown)
VH: QVQLQQPGAELVRPGASVKLSCKASGYTFTTYWINWVRQRPGQGLEWIGNIYPSDSYTNYNQKFKDKASLTVDKSSNTAYMQLSSPTSEDSAVYYCAREAGDGTHYYAIDYWGQGTSVTVSS
VL: NIVMTQSPKSMSMSVGERVTLSCKASENVGTYVSWYQQKPEQSPKLLIYGASNRYPGVPDRFTGSGSATDFTLTISSLQAEDLADYHCGQGYSYLRTFGGGTNLEIK
B15: 61-6A7-mHvKv-IgG2 (antibody, V domains shown)
VH: EVQLQQSGAELVRPGALVKLSCKASGFNIKDYYMHWVKRRPEQGLEWIGWIDPENGNTIYDPKFQDKASITADTSSNTAYLQLSSLTSEDTAVYYCAEGLPWYFDYWGQGTTLTVSS
VL: QIILTQSPALMSASPGEKVTMTCSASSSVSDMNWYQQKPRSSPTPWIYLTSNLSSGVPDRFSGSGSGTSYSLTISSMEAEDAATYYCQQWSGNPLTFGAGTRLELK
B16: 69-3C2-mHvKv-IgG2 (antibody, V domains shown)
VH: DVQLVESGGGLVQPGGSRKLSCAASGFSFSSFGMHWMRQAPEKGLEWVAYISSGSSAIYYADTVKGRFTISRDNPKNTLFLQMTSLRSEDTAMYYCARDWVDYWGQGTTLTVSS
VL: DIQMTQSPASLSVSVGETVTITCRASENIYSNLVWYQQKQGKSPQLLVYTATKLTNGVPSRFSGSGSGTQYSLKINSLQSEDFGTYYCQHFWDTPYTFGGGTKLEMK
B17: 70-3F9-mHvKv-IgG2 (antibody, V domains shown)
VH: QVQLQQPGAELVRPGASVKLSCKASGYTFTSYWINWVKQRPGQGLEWIGNIFPSDSYTNYNQKFKDRAKLTVDKSSSTAYMQLSSPTSEDSAVYYCTRFGSSGYPDYYTMEYWGQGTSVTVSS
VL: DIQMTQSPASLSASVGETVTITCRASGNIDNYLAWYQQKQGKSPQLLVYNAKTLAEGVPSRFSGSGSGTEYSLKINSLQPEDFGSYHCQQYWTIPYTFGGGTKLEIK
B18: 70-6F10-mHvKv-IgG2 (antibody, V domains shown)
VH: QVQLQQSGPELVKPGASVKISCKASGYAFNNSWMNWVKQRPGQGLEWIGRIYPGDGDTDYNGKFKGKATLTADKSSSTAYMQLSSLTSVDSAVYFCARLDGNYYYWYFDVWGAGTTVTVSS
VL: not shown
B19: 1C4-H2K3-IgG4 (antibody, V domains shown)
VH: QVQMVQSGAEVKKPGASVKLSCKASGFTFSSSYINWLRQAPGQSLEWIGWIFAGTGGTYYNQKFTGRVQITRDTSASTAYMELSSLRSEDTAIYYCARHSPRATLFDFWGQGTTLTVSS
VL: EIVLTQSPATLSLSPGERATMSCRASSSVNHMHWYQQKPGFSPRAWIYATSNLASGIPARFSGSGSGTSFTLTISSLEPEDFATYYCQQWSSNPYTFGGGTKLEIK
notes: humanized
B20: 1C4-H1K1-IgG4 (antibody, V domains shown)
VH: B19 VH with S44R, I48M, Q69T
VL: B19 VL with M21L, F41Q, S42A, W46L, T84V
notes: humanized; also called 1C4-IgG4-H1K1
B21: 1C4-H1K2-IgG4 (antibody, V domains shown)
VH: B19 VH with S44R, I48M, Q69T
VL: B19 VL with M21L, F41Q, S42A, W46L
notes: humanized
B22: 1C4-H1K3-IgG4 (antibody, V domains shown)
VH: B19 VH with S44R, I48M, Q69T
VL: B19 VL
notes: humanized
B23: 1C4-H1K4-IgG4 (antibody, V domains shown)
VH: B19 VH with S44R, I48M, Q69T
VL: B19 VL with L13A, A19V, K38R, F70Y, T71S
notes: humanized
B24: 1C4-H2K1-IgG4 (antibody, V domains shown)
VH: B19 VH
VL: B19 VL with M21L, F41Q, S42A, W46L, T84V
notes: humanized

Molecular target: T1, Histidine-tagged human 4-1BB protein (h4-1BB-His) (human, UniProt Q07011 24-186)
T1 construct: not shown: histidine tag
Test: SPR (Biacore T200), antibody on Protein A chip, h4-1BB-His injected;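 note: dissociation phase followed for 300 s, Kd derived as koff divided by kon from the kinetic fit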
Procedure: The binding affinity of the anti-h4-1BB antibodies were measured using surface plasmon resonance (SPR) using Biacore (Biacore, INC, Piscataway N.J.) T200 biosensor equipped with pre-immobilized Protein A sensor chips.
Dissociation was monitored for 300 seconds. The chip was regenerated after the last injection of each titration with Glycine (pH 2.0, 30 μL/min for 5 seconds).
Affinities were calculated from the quotient of the kinetic rate constants (KD=koff/kon).

Row | Binder | Kd [nM] | koff [s⁻¹] | kon [M⁻¹ s⁻¹]
1 | B1 | 20.5 | 0.000502 | 24400
2 | B2 | 0.371 | 0.000715 | 1.93e+06
3 | B3 | 9.91 | 0.00247 | 249000
4 | B4 | 4.96 | 0.000138 | 27700
5 | B5 | 110 | 0.00298 | 27200
6 | B6 | 15.3 | 0.00916 | 600000
7 | B7 | 23.1 | 0.0041 | 177000
8 | B8 | 0.597 | 0.000127 | 214000
9 | B9 | 62.3 | 0.00293 | 47000
10 | B10 | 1.28 | 0.000413 | 323000
11 | B11 | 12 | 0.00502 | 417000
12 | B12 | 2.18 | 0.00341 | 1.57e+06
13 | B13 | 14 | 0.00141 | 101000
14 | B14 | 0.313 | 0.000331 | 1.06e+06
15 | B15 | 0.359 | 0.000513 | 1.43e+06
16 | B16 | 0.45 | 0.000521 | 1.16e+06
17 | B17 | 0.16 | 0.000159 | 999000
18 | B18 | 10.9 | 0.000263 | 24100
19 | B19 | 17.6 | 0.000502 | 28500
20 | B20 | 23.1 | 0.000616 | 26700
21 | B21 | 22 | 0.000605 | 27500
22 | B22 | 21.8 | 0.000623 | 28500
23 | B23 | 23.9 | 0.000614 | 25700
24 | B24 | 19.4 | 0.000502 | 25900
